In the experiment the target is T1, rhAxl-Fc protein (Homo sapiens, UniProt P30530).
T1 construct: purchased R and D Systems 154AL/CF
T1 sequence (P30530 26-451 limits assumed): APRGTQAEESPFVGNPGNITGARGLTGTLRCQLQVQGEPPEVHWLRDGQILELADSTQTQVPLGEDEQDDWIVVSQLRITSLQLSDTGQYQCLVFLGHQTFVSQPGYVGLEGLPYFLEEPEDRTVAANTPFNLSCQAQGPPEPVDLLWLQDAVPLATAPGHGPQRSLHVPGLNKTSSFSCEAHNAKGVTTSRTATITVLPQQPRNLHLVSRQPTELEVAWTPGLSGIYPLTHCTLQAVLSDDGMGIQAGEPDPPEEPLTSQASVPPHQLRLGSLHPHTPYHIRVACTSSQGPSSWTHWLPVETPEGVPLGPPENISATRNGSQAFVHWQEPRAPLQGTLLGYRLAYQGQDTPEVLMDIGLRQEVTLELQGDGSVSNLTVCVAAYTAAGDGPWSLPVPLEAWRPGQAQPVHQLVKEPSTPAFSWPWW
The experiment is described as follows: ELISA with coated 1613F12 and a range of rhAxl-Fc protein (hz vs. m). The format is binding. Particulars: FIG. 3. The method, then: In this assay, 96 well plates (Immulon II, Thermo Fisher) were coated with a 5 μg/ml of 1613F12 solution in 1×PBS, overnight at 4° C. After a saturation step, a range of rh Axl-Fc protein (R and D Systems, ref: 154-AL) is incubated for 1 hour at 37° C. on the coated plates. For the revelation step, a biotinylated-Axl antibody (in house product) was added at 0.85 μg/ml for 1 hour at 37° C. This Axl antibody belongs to a distinct epitopic group. Then an avidin-horseradish peroxidase solution at 1/2000° in diluent buffer is added to the wells. Then the TMB substrate solution is added for 5 min. After addition of the peroxydase stop solution, the absorbance at […] was measured with a microplate reader.
On the technique in general: In an ELISA, binding on a coated surface is turned into a signal by an enzyme label.

B1: hz1613F12: humanized Axl antibody 1613F12 (antibody, V domains shown)
VH: QVQLVQSGAEVKKPGASVKVSCKASGFNIRDTYMHWVRQAPGQGLEWMGRLDPANGHTKYAQKFQGRVTMTRDTSISTAYMELSRLRSDDTAVYYCARGAYYYGSSGLFYFDYWGQGTLVTVSS
VL: DVQMTQSPSSLSASVGDRVTITCRASKSISKYLAWYQQKPGKVPKLLIYSGSTLQSGVPSRFSGSGSGTDFTLTISSLQPEDVATYYCQQHHEYPLTFGGGTKVEIK
modifications: Hz1613F12 VH - Consensus 2; Hz1613F12 VL - Consensus 2
notes: humanized Axl antibody 1613F12
On to B1, for which the “binding of rhAxl-Fc protein, murine versus humanized version” value is on record as “bind similarly the rhAxl-Fc protein”.
